Test results published in patent US20130302347A1 (Genentech, published 2013).

Key:
[1] = molecular target: T1, Human TMEM149 on the cell surface (transfected HEK293T cells; human leukocytes) (human, UniProt Q9H665 23-355); test: radioligand competition: 125I-FLAG-IGFL1 (100 pM) on HEK293T cells expressing human TMEM149, unlabelled FLAG-IGFL1 varied
T1 construct: also called hTMEM149; MK61
T1 sequence: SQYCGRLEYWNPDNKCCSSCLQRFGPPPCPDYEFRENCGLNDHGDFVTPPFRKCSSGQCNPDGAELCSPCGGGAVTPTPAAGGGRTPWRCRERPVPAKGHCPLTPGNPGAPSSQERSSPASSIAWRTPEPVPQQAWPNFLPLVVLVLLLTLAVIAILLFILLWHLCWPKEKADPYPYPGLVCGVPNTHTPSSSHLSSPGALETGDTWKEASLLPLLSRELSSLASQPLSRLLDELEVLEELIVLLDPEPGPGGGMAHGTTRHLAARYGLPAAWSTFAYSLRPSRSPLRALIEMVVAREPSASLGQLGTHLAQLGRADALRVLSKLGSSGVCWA
Protocol: B) FACS analysis of IFGL1 binding to cells expressing surface TMEM149. […] Reference is made to Examples 10 and 11.
(§1) To determine the affinity of IGFL with TMEM149, ligands were iodinated with ¹²⁵I using the lactoperoxidase method and free ¹²⁵I-Na was removed from the labeled protein by gel filtration using a NAP-5 column. 50 μL competition reaction mixtures containing a fixed concentration of iodinated ligand and decreasing concentrations of serially diluted, unlabeled ligand were placed into 96-well plates in triplicate. To each well, HEK293T cells stably expressing human or mouse TMEM149 were added at a density of 100,000 cells in 0.2 mL of binding buffer (Dulbecco's Modified Eagle Medium with 1% bovine serum albumin, 50 mM HEPES pH 7.2 and 2 mM sodium azide). The final concentration of the iodinated ligand with cells in each competition reaction was 100 pM (100,000 cpms per 0.25 mL). The final concentration of the unlabeled ligand with cells in the competition reaction varied, starting at 500 nM and then decreasing by 1- to 2-fold dilution for ten concentrations, and included a zero-added, buffer-only sample. […] The filters were counted on a Wallac Wizard 1470 gamma counter (PerkinElmer Life and Analytical Sciences Inc.; Wellesley, Mass.).

[2] = molecular target: T1, Human TMEM149 on the cell surface …; test: radioligand competition assay; 125I-FLAG-IGFL1 against unlabelled ligand on HEK293T cells stably expressing human TMEM149
Protocol: To determine the affinity of IGFL with TMEM149, ligands were iodinated with ¹²⁵I using the lactoperoxidase method and free ¹²⁵I-Na was removed from the labeled protein by gel filtration using a NAP-5 column. 50 μL competition reaction mixtures containing a fixed concentration of iodinated ligand and decreasing concentrations of serially diluted, unlabeled ligand were placed into 96-well plates in triplicate. To each well, HEK293T cells stably expressing human or mouse TMEM149 were added at a density of 100,000 cells in 0.2 mL of binding buffer (Dulbecco's Modified Eagle Medium with 1% bovine serum albumin, 50 mM HEPES pH 7.2 and 2 mM sodium azide). The final concentration of the iodinated ligand with cells in each competition reaction was 100 pM (100,000 cpms per 0.25 mL). The final concentration of the unlabeled ligand with cells in the competition reaction varied, starting at 500 nM and then decreasing by 1- to 2-fold dilution for ten concentrations, and included a zero-added, buffer-only sample. Competition reactions were incubated for 2 hours at room temperature, then transferred to a Millipore Multiscreen filter plate (Billerica, Mass.) and washed 4 times with binding buffer to separate the free from bound iodinated antibody. The filters were counted on a Wallac Wizard 1470 gamma counter (PerkinElmer Life and Analytical Sciences Inc.; Wellesley, Mass.).

[3] = molecular target: T2, nerve growth factor receptor (NGFR) on transfected 293T cells (UniProt P08138 29-427, limits assumed); test: flow cytometry of transfected 293T cells, FLAG-IGFL1 detected with fluorescent anti-FLAG
T2 construct: whole, on cells
T2 sequence (looked up): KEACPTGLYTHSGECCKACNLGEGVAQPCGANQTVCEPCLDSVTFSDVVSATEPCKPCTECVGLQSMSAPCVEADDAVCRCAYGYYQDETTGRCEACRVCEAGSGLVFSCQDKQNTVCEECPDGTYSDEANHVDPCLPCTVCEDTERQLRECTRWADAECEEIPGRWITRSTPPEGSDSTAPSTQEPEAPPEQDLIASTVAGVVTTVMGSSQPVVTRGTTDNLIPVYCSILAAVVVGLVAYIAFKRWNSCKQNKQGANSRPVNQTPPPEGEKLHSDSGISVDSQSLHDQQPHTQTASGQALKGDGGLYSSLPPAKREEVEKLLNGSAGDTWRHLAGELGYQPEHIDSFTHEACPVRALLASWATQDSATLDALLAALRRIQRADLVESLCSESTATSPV

[4] = molecular target: T3, DR4 on transfected 293T cells (UniProt O00220 24-468, limits assumed); test: as above
T3 construct: whole, on cells
T3 sequence (looked up): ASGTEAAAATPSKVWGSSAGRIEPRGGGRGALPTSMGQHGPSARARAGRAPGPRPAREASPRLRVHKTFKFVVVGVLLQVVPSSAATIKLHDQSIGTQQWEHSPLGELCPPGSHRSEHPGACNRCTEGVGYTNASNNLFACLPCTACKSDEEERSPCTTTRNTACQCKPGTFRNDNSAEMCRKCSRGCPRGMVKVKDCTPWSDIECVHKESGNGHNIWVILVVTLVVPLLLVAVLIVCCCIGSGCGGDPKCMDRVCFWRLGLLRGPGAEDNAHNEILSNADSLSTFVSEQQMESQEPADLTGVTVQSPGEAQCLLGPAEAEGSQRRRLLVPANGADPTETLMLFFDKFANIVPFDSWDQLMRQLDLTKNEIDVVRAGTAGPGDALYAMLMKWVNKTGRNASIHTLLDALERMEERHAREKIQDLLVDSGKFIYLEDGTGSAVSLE

[5] = molecular target: T4, TMEM149-Fc (human TMEM149 extracellular domain with C-terminal human IgG1 Fc) (human, UniProt Q9H665 23-160); test: SPR (BiaCore 3000); TMEM149-Fc captured by anti-human IgG, 1:1 Langmuir fit
T4 construct: also called recombinant human TMEM149-Fc; Fc-TMEM149; not shown: human IgG1 Fc, C-terminal
T4 sequence: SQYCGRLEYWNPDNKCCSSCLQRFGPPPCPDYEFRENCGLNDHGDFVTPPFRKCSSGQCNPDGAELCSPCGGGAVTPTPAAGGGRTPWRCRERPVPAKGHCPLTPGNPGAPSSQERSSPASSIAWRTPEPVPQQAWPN
Protocol: (§2) Surface plasmon resonance (SPR) was run on a BiaCore 3000 (GE healthcare, Piscataway, N.J.) at 25° C. using anti-human IgG F(ab′)₂ (Jackson Immunoresearch, West Grove, Pa.) amine-coupled to BiaCore CM5 sensor chips. For kinetic analysis of protein interactions, Fc-fusion proteins at 25 μg/ml were first captured onto sensor chips by injecting them for 3 min at 5 μl/min. Then, test proteins diluted to their indicated concentrations in HBS-P buffer (0.01 M Hepes, pH 7.4 0.15 M NaCl 0.005% Surfactant P20) were injected for 3 min at 30 μl/min. Dissociation in HBS-P buffer alone was then measured at a flow rate of […]. Sensor chips surfaces were regenerated by injecting 10 mM glycine pH 1.5 for 30 s after each cycle. Kinetic parameters were determined by fitting the data to a 1:1 Langmuir model using the Biacore 3000 evaluation software (GE Healthcare).

[6] = molecular target: T2, nerve growth factor receptor (NGFR) on …; test: flow cytometry of transfected 293T cells, FLAG-mIGFL detected with fluorescent anti-FLAG
[7] = molecular target: T3, DR4 on transfected 293T cells; test: as above
[8] = molecular target: T5, Mouse TMEM149 on the cell surface (transfected 293T cells; mouse T cells) (mouse, UniProt Q3U4N7 23-345); test: radioligand competition assay; 125I-FLAG-mIGFL against unlabelled ligand on 293T cells expressing mouse TMEM149
T5 construct: also called mTMEM149; murine TMEM149
T5 sequence: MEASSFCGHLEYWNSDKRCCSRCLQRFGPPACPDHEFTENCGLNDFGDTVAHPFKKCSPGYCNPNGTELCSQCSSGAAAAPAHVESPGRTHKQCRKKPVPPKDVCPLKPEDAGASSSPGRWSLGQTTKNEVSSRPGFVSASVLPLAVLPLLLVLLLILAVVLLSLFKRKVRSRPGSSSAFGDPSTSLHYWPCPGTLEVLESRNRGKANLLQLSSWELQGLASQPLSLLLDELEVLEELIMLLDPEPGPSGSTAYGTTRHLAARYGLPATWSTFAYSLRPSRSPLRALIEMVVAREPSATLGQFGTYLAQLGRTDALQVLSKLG
Protocol: (§3) Reference is made to Example 11.
as §1, with “Mass.). The binding data was evaluated using NewLigand software (Genentech), which uses the fitting algorithm of Munson and Robard to determine the binding affinity of the antibody (Munson, P. J., and D. Rodbard. 1980.” for “Mass.).”

[9] = molecular target: T6, mTMEM149-Fc (mouse TMEM149 extracellular domain with C-terminal human IgG1 Fc) (mouse; human, UniProt Q3U4N7 21-163); test: SPR, mTMEM149-Fc captured on the chip
T6 construct: Only the predicted extracellular domain, without the transmembrane domain, was used; the signal peptide is residues 1-22; not shown: human IgG1 Fc, C-terminal
T6 sequence: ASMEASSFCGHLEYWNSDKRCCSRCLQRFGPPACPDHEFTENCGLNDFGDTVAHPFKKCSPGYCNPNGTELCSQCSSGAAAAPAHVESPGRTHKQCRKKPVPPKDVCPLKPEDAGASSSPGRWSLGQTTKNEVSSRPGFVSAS
Protocol: as §2

[10] = molecular target: T5, Mouse TMEM149 on the cell surface …; test: radioligand competition: 125I-FLAG-mIGFL (100 pM) on 293T cells expressing murine TMEM149, unlabelled FLAG-mIGFL varied
Protocol: as §3
as §1, with “Mass.). The binding data was evaluated using NewLigand software (Genentech), which uses the fitting algorithm of Munson and Robard to determine the binding affinity of the antibody (Munson, P. J., and D. Rodbard. 1980.” for “Mass.).”

[11] = molecular target: T4, TMEM149-Fc (human TMEM149 extracellular …); test: SPR, TMEM149-Fc captured on the chip
Protocol: as §2

[12] = molecular target: T2, nerve growth factor receptor (NGFR) on …; test: flow cytometry of transfected 293T cells, FLAG-IGFL3 detected with fluorescent anti-FLAG
[13] = molecular target: T3, DR4 on transfected 293T cells; test: as above

B1: FLAG-IGFL1 (recombinant human IGFL1 with FLAG epitope tag) (ligand)
chain: APVAPMTPYLMLCQPHKRCGDKFYDPLQHCCYDDAVVPLARTQTCGNCTFRVCFEQCCPWTFMVKLINQNCDSARTSDDRLCRSVS
notes: Made in CHO cells; Signal peptide cleavage is predicted only; also called hIGFL1; IGFL1-FLAG; not shown: printed both as FLAG-IGFL1 and IGFL1-FLAG, so the end that carries the tag is not
B1 was tested, and the “IC50 (read off the curve)” value [1] was ~0.5 nM, the Kd [2] was 0.31 nM and the binding result [3] was “no binding”. For the same binder, the binding result [4] was “no binding” and the Kd [5] was 1.2 nM.

B2: FLAG-mIGFL (recombinant mouse IGFL with N-terminal FLAG epitope tag) (ligand, not shown: small tags and cut ends)
chain: RKISTFSGPGSWPCNPKCDGRTYNPSEECCVHDTILPFKRINLCGPSCTYRPCFELCCPESYSPKKKFIVKLKVHGERSHCSSSPISRNCKSNKIFHGEDIEDNQLSLRKKSGDQP
notes: also called mIGFL-FLAG; mIGFL1
B2 was tested, and the binding result [6] was “no binding”, the binding result [7] was “no binding” and the Kd [8] was 0.73 nM. The Kd [9] was 0.15 nM and the “IC50 (read off the curve)” value [10] was ~0.8 nM.

B3: FLAG-IGFL3 (recombinant human IGFL3 with FLAG epitope tag) (ligand, not shown: small tags and cut ends)
chain: TTDAPVGSGLWLCQPTPRCGNKIYNPSEQCCYDDAILSLKETRRCGSTCTFWPCFELCCPESFGPQQKFLVKLRVLGMKSQCHLSPISRSCTRNRRHVLYP
notes: also called hIGFL3
With B3 the Kd [11] was 0.08 nM, the binding result [12] was “no binding” and the binding result [13] was “no binding”.
